Measurements from publication PMC2959088.

What follows are substances tested against human cathepsin B (human) (assay: enzyme inhibition assay (residual activity on the fluorogenic substrate Z-Phe-Arg-MCA); cathepsin B or L (0.3 nM) incubated 5 min at 37°C with varied inhibitor in 100 mM sodium acetate pH 5.5, 2.5 mM DTT; substrate 0.01 mM; triplicate; Ki(app) by non linear regression (GraFit), Ki by Morrison's procedure).

Chain of Oryzacystatin-1 (P09229 39-140): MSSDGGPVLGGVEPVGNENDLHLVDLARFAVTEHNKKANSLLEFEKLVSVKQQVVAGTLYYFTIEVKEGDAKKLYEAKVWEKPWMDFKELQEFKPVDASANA

Ki	Substance
87.6 nM	Canecystatin-1 (natural protein)
78.5 nM	Oryzacystatin-1 (from UniProt P09229 39-140) (natural protein)

These substances were tested against human cathepsin L (human) in the same assay as above.

Substance	Ki
Reverse Mutant 1 (T30I) (designed binder)	1.93 nM
Reverse Mutant 3 (T30I, Q97L) (designed binder)	12.5 nM

More lines, now with the values ahead:

Ki	Substance
11.7 nM	Reverse Mutant 2 (Q97L) (designed binder)
0.1 nM	Canecystatin-1 (natural protein)
